In the supplement of paper PMC9112550, “Optimization of the antimicrobial peptide Bac7 by deep mutational scanning” (BMC Biology, 2022):

System: Escherichia coli TOP10
Experiment: shrunken log2 fold change of peptide-encoding DNA abundance (4.5 h post-induction vs induction); higher = less antimicrobial activity (less host growth inhibition)
Settings: time post-induction: 4.5 h; library: site-saturation at positions 5, 18, 19, 20
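Also: peptides expressed intracellularly from a pBAD plasmid library in pooled LB shake-flask culture, induced with 0.3% L-arabinose, DNA abundance read by NGS, three biological replicates, DESeq2 with apeglm shrinkage.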

Sequence | shrunken log2 fold change
RRIRGRPPRLPRPRPRPQWYPRP | 0.25
RRIRCRPPRLPRPRPRPINAPRP | 0.695
RRIRFRPPRLPRPRPRPCQFPRP | -0.227
RRIRSRPPRLPRPRPRPCVWPRP | 0.8
RRIRSRPPRLPRPRPRPCHMPRP | -0.233
RRIRLRPPRLPRPRPRPNYRPRP | -0.571
RRIRSRPPRLPRPRPRPHCLPRP | -0.0826
RRIRPRPPRLPRPRPRPGSYPRP | 0.0254
RRIRKRPPRLPRPRPRPNNRPRP | 0.0938
RRIRRRPPRLPRPRPRPHLDPRP | 0.176
RRIRIRPPRLPRPRPRPMLRPRP | -0.119
RRIRNRPPRLPRPRPRPECPPRP | 0.012
RRIRGRPPRLPRPRPRPHAAPRP | 1.47
RRIRWRPPRLPRPRPRPCAAPRP | 1.32
RRIRGRPPRLPRPRPRPIITPRP | -0.0865
RRIRERPPRLPRPRPRPNFFPRP | -0.0705
RRIRPRPPRLPRPRPRPKTRPRP | 0.382
RRIRQRPPRLPRPRPRPHCYPRP | -0.0282
RRIRHRPPRLPRPRPRPMCWPRP | -0.178
RRIRHRPPRLPRPRPRPICWPRP | 0.0429
RRIRCRPPRLPRPRPRPGGHPRP | 0.286
RRIRFRPPRLPRPRPRPTKFPRP | -0.355
RRIRPRPPRLPRPRPRPSQKPRP | 0.188
RRIRYRPPRLPRPRPRPCNWPRP | -0.0748
RRIRTRPPRLPRPRPRPASHPRP | -0.42

Sequence | shrunken log2 fold change
RRIRIRPPRLPRPRPRPHVCPRP | 0.41
RRIRQRPPRLPRPRPRPQCKPRP | -0.102
RRIRRRPPRLPRPRPRPVCNPRP | 0.181
RRIRVRPPRLPRPRPRPMLRPRP | -0.102
RRIRRRPPRLPRPRPRPDDLPRP | -0.128
RRIRKRPPRLPRPRPRPWQQPRP | 0.608
RRIRWRPPRLPRPRPRPQGLPRP | 0.00602
RRIRMRPPRLPRPRPRPVNLPRP | -0.0198
RRIRDRPPRLPRPRPRPMWNPRP | 0.108
RRIRERPPRLPRPRPRPCPGPRP | -0.451
RRIRLRPPRLPRPRPRPACPPRP | -0.00982
RRIRGRPPRLPRPRPRPLVDPRP | 1.1
RRIRKRPPRLPRPRPRPMEGPRP | -0.01
RRIRERPPRLPRPRPRPVTAPRP | -0.00991
RRIRGRPPRLPRPRPRPTYWPRP | 0.186
RRIRHRPPRLPRPRPRPLINPRP | -0.201
RRIRSRPPRLPRPRPRPWTLPRP | -0.0934
RRIRLRPPRLPRPRPRPEVLPRP | -0.0871
RRIRDRPPRLPRPRPRPCLLPRP | 0.491
RRIRDRPPRLPRPRPRPQRQPRP | 0.0345
RRIRHRPPRLPRPRPRPMNDPRP | -0.108
RRIRGRPPRLPRPRPRPIQGPRP | -0.0132
RRIRERPPRLPRPRPRPPKNPRP | 0.284
RRIRHRPPRLPRPRPRPNAEPRP | -0.0088
RRIRIRPPRLPRPRPRPTMHPRP | -0.443

Sequence | shrunken log2 fold change
RRIRFRPPRLPRPRPRPTSRPRP | -0.291
RRIRYRPPRLPRPRPRPRSEPRP | 0.0596
RRIRARPPRLPRPRPRPRYPPRP | 0.0172
RRIRNRPPRLPRPRPRPSEIPRP | -0.0685
RRIRTRPPRLPRPRPRPNTIPRP | -0.596
RRIRPRPPRLPRPRPRPCSYPRP | -0.858
RRIRYRPPRLPRPRPRPKDPPRP | -0.236
RRIRFRPPRLPRPRPRPLTMPRP | -0.396
RRIRYRPPRLPRPRPRPDCPPRP | -0.179
RRIRNRPPRLPRPRPRPRWRPRP | 0.623
RRIRSRPPRLPRPRPRPCFIPRP | -0.688
RRIRERPPRLPRPRPRPSTPPRP | -0.28
RRIRHRPPRLPRPRPRPKQRPRP | 0.41
RRIRARPPRLPRPRPRPVGVPRP | 0.528
RRIRNRPPRLPRPRPRPICPPRP | -0.0189
RRIRARPPRLPRPRPRPYPHPRP | -0.0654
RRIRWRPPRLPRPRPRPADPPRP | 0.372
RRIRYRPPRLPRPRPRPYACPRP | 0.00253
RRIRNRPPRLPRPRPRPHKWPRP | -0.285
RRIRPRPPRLPRPRPRPSPLPRP | 0.0443
RRIRCRPPRLPRPRPRPRMTPRP | 0.296
RRIRKRPPRLPRPRPRPIMKPRP | 0.16
RRIRFRPPRLPRPRPRPKFQPRP | -0.14
RRIRRRPPRLPRPRPRPSRCPRP | -0.0309
RRIRFRPPRLPRPRPRPALEPRP | 0.0373

Sequence | shrunken log2 fold change
RRIRWRPPRLPRPRPRPGVTPRP | 0.586
RRIRTRPPRLPRPRPRPQDFPRP | -0.29
RRIRFRPPRLPRPRPRPYGIPRP | -0.00674
RRIRMRPPRLPRPRPRPRWRPRP | 0.732
RRIRFRPPRLPRPRPRPNYQPRP | -0.467
RRIRFRPPRLPRPRPRPMYDPRP | -0.244
RRIRTRPPRLPRPRPRPQNWPRP | -0.265
RRIRHRPPRLPRPRPRPAAWPRP | 0.465
RRIRARPPRLPRPRPRPPVVPRP | 0.378
RRIRKRPPRLPRPRPRPCYYPRP | -0.48
RRIRQRPPRLPRPRPRPNEQPRP | 0.0394
RRIRQRPPRLPRPRPRPICLPRP | 0.144
RRIRHRPPRLPRPRPRPEEEPRP | -0.0106
RRIRARPPRLPRPRPRPVEAPRP | 0.365
RRIRYRPPRLPRPRPRPTMIPRP | -0.455
RRIRGRPPRLPRPRPRPQEMPRP | 0.0954
RRIRYRPPRLPRPRPRPRDTPRP | -0.378
RRIRHRPPRLPRPRPRPAQKPRP | -0.0418
RRIRGRPPRLPRPRPRPNCKPRP | 0.21
RRIRDRPPRLPRPRPRPDFTPRP | -0.0299
RRIRIRPPRLPRPRPRPVHRPRP | -0.194
RRIRYRPPRLPRPRPRPCNSPRP | -0.168
RRIRLRPPRLPRPRPRPEAVPRP | -0.0408
RRIRNRPPRLPRPRPRPTYWPRP | -0.101
RRIRLRPPRLPRPRPRPGMIPRP | -0.419

Sequence | shrunken log2 fold change
RRIRWRPPRLPRPRPRPWVFPRP | 0.262
RRIRVRPPRLPRPRPRPWCLPRP | -0.198
RRIRNRPPRLPRPRPRPMQYPRP | -0.267
RRIRSRPPRLPRPRPRPHWAPRP | -0.0673
RRIRERPPRLPRPRPRPSWCPRP | -0.0728
RRIRGRPPRLPRPRPRPDFVPRP | 0.0455
RRIRQRPPRLPRPRPRPEIMPRP | 0.103
RRIRYRPPRLPRPRPRPTLEPRP | -0.136
RRIRTRPPRLPRPRPRPETYPRP | -0.275
RRIRRRPPRLPRPRPRPWPVPRP | 0.0907
RRIRARPPRLPRPRPRPRMAPRP | 0.479
RRIRVRPPRLPRPRPRPELQPRP | -0.0355
RRIRERPPRLPRPRPRPYNFPRP | -0.254
RRIRVRPPRLPRPRPRPGARPRP | 0.198
RRIRDRPPRLPRPRPRPPACPRP | 0.0727
RRIRGRPPRLPRPRPRPPTMPRP | 0.429
RRIRNRPPRLPRPRPRPAQLPRP | -0.207
RRIRVRPPRLPRPRPRPENTPRP | -0.0389
RRIRMRPPRLPRPRPRPTGNPRP | 0.496
RRIRLRPPRLPRPRPRPIVEPRP | 0.0406
RRIRNRPPRLPRPRPRPGLSPRP | 0.486
RRIRDRPPRLPRPRPRPFFQPRP | -0.24
RRIRLRPPRLPRPRPRPGQSPRP | 0.0614
RRIRFRPPRLPRPRPRPVMEPRP | 0.352
RRIRIRPPRLPRPRPRPHENPRP | -0.581
